% CSP reduction data for two substances are collected here from PMC9508154.

The experiment deals with eIF5-CTD_(-CTT)-EE, phosphomimetic mutant S389E/S390E (human) (UniProt P55010). In words: NMR titration.
UniProt P55010, sequence (P55010 232-431 S389E/S390E): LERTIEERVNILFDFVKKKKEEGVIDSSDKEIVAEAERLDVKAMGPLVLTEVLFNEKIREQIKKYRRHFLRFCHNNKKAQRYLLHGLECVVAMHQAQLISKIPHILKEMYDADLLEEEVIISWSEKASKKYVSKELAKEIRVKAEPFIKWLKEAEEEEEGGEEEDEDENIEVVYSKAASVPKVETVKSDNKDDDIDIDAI

Substance “N-terminal tail of the β subunit of eIF2 (eIF2β-NTT) (domain or fragment)” came in with a % CSP reduction at E17 of eIF1A-ΔC bound to m7 of 83%, a % CSP reduction at G5 of eIF1A-ΔC bound to m7 of 95%, a % CSP reduction at L25 of eIF1A-ΔC bound to m7 of 62% and a % CSP reduction at V26 of eIF1A-ΔC bound to m7 of 38%. Besides, the % CSP reduction at W69 of eIF1A-ΔC bound to m7 amounted to 63%.
On to “eIF1A N-terminal tail (eIF1A-NTT) (domain or fragment)”, for which the % CSP reduction at E17 of eIF1A-ΔC bound to m7 came out at 32%, the % CSP reduction at G5 of eIF1A-ΔC bound to m7 amounted to 40%, the % CSP reduction at L25 of eIF1A-ΔC bound to m7 was determined as 20% and the % CSP reduction at V26 of eIF1A-ΔC bound to m7 was 24%. Besides, the % CSP reduction at W69 of eIF1A-ΔC bound to m7 is 22% and the % CSP reduction at Y83 of eIF1A-ΔC bound to m7 stood at 18%.
